In patent US7488592:

Assays:
GST-CCaaX, P01120 = target: T1, GST-CCaaX, P01120
T1 chain: CCIIS

[1] = target: T2, GST-Ras2(HV)CCaaX, P01120
T2 chain: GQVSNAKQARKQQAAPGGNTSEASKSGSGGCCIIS

GST-Ras2CCaaX, P01120 = target: T3, GST-Ras2CCaaX, P01120
T3 chain: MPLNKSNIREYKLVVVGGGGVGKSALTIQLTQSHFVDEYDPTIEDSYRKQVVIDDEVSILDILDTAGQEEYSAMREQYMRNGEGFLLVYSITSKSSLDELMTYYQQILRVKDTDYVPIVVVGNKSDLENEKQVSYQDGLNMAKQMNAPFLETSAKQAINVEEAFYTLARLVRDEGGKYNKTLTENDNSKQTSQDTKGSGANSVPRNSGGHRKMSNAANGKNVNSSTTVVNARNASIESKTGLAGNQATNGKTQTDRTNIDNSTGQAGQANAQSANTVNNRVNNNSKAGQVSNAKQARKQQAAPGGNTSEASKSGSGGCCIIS

[2] = target: H-Ras (N-terminal His6-tagged fusion), P01112
Sequence of H-Ras (N-terminal His6-tagged fusion), P01112 (P01112 whole entry, looked up, the tested form may be a part): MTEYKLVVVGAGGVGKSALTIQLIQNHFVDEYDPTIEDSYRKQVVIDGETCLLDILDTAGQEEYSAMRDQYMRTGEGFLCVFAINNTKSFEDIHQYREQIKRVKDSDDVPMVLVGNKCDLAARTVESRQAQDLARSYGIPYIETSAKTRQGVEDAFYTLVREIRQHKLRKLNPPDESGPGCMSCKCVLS

B1: Erf2p/Erf4p complex (GST-Erf4p/FLAG-Erf2p on GSH beads) (protein)
chain 1: MALVSRRSTRSESTSITKEEHTGEGSLTKLFFRWLVTLEGDQDINDGKGYISLPNVSNYIFFLGGRFRTVKGAKPLWLGVLLAIVCPMVLFSIFEAHKLWHTQNGYKVLVIFFYYFWVITLASFIRTATSDPGVLPRNIHLSQLRNNYQIPQEYYNLITLPTHSSISKDITIKYCPSCRIWRPPRSSHCSTCNVCVMVHDHHCIWVNNCIGKRNYRFFLIFLLGAILSSVILLTNCAIHIARESGGPRDCPVAILLLCYAGLTLWYPAILFTYHIFMAGNQQTTREFLKGIGSKKNPVFHRVVKEENIYNKGSFLKNMGHLMLEPRGPSFVSARKPHEAGDWRFMDLSPAHSFEKIQKI
chain 2: MCDSHQKEEDNANTSERALFFNYHEFSYSFYEDLGSEDAKPTEHDEDHKLCITHFPNVYAARGSAEFQVTRVVRVPRRFDESRSSLETPQFSTQLPGSEPAAIVGDDGTSFVRCGRYDIGDHVFGCSSVSPLSEYLSAAELAEVVHRVNGFLLREEGEVFGWRNLSGLLLDMLTGGLWSWVLGPLLSRPVFQESLALEQYVAQLNSPGGLLHERGVRLVLPRRSGCLSLDFVVPRPK
With B1 the “in vitro palmitoylation relative to GST-(HV)CCaaX” value (GST-CCaaX, P01120) was “reduced 10-fold compared with GST-(HV)CCaaX”, the “acceleration of the spontaneous rate of palmitoylation” value [1] was ~160-fold and the “palmitate incorporated into the Ras2p substrate (in vitro PAT assay, [3H]palmitoyl-CoA)” value [1] was 0.14 pmol/min. The “palmitate transferred (PAT assay)” value [1] was 2720 pmol palmitate transferred/min/\u00b5mol substrate, the “in vitro palmitoylation (PAT assay)” value (GST-Ras2CCaaX, P01120) was “palmitoylated GST(HV)CCIIS to levels similar to full-length GST-Ras2CCIIS” and the “palmitate transferred (PAT assay)” value [2] was 40 vs 2720 pmol palmitate transferred/min/\u00b5mol substrate. The “palmitoylation level relative to Ras2p” value [2] was “levels much lower (5%) than the proposed natural substrate, Ras2p”, the “palmitate transferred (PAT assay)” value (Myristoylated Gi1) was 55 vs 2720 pmol palmitate transferred/min/\u00b5mol substrate and the “palmitoylation level relative to yeast Ras2p” value (Myristoylated Gi1) was ~5% that of yeast Ras2p.
